Tests used:
[1] = target: mannose 6-phosphate receptor (M6PR) on K-562 cells; assay: cell-based or functional assay
[2] = target: mannose 6-phosphate receptor (M6PR) on K-562 cells; assay: flow cytometry on K-562 cells expressing M6PR; reference T028100075-bis-M6P(1x)
[3] = target: mannose 6-phosphate receptor (M6PR) on K-562 cells; assay: flow cytometry on K-562 cells expressing M6PR, detection with HSA-biotin and streptavidin-phycoerythrin

B1: T028100075-bis-M6P(1x) (bispecific antibody)
chain: DVQLVESGGGVVQPGGSLRLSCAASGFTFRSFGMSWVRQAPGKGPEWVSSISGSGSDTLYADSVKGRFTISRDNSKNTLYLQMNSLRPEDTALYYCTIGGSLSRSSQGTLVTVSSGGGGSGGGGSGGGGSEVQLVESGGGLVQAGGSLSISCAASGGSLSNYVLGWFRQAPGKEREFVAAINWRGDITIGPPNVEGRFTISRDNAKNTGYLQMNSLAPDDTAVYYCGAGTPLNPGAYIYDWSYDYWGRGTLVTVSSGGC
modifications: bisM6P-PEG4-maleimide conjugated to the thiol of the C-terminal Cys (-GGC) of the building block (SEQ ID NO.: 175); DOL by mass spec 1.00
decrease in internalization potency on K-562 cells against the 3x bis-M6P conjugates [1]: 20 fold | internalization potency on K-562 cells, EC50 [M] (HSA-pHAb, flow cytometry) [1]: 5.64e-08 M

B2: T028100069-bis-M6P(3x) (bispecific antibody)
chain: DVQLVESGGGVVQPGGSLRLSCAASGFTFRSFGMSWVRQAPGKGPEWVSSISGSGSDTLYADSVKGRFTISRDNSKNTLYLQMNSLRPEDTALYYCTIGGSLSRSSQGTLVTVSSGGGGSGGGGSGGGGSEVQLVESGGGLVQAGGSLSISCAASGGSLSNYVLGWFRQAPGCEREFVAAINWRGDITIGPPNVEGRFTISRDNAKNTGYLQMNSLAPDDTAVYYCGAGTPLNPGAYIYCWSYDYWGCGTLVTVSS
modifications: bisM6P-PEG4-maleimide conjugated to the thiols of the three engineered Cys of the ISVD-based building block (Kabat positions 43, 100f and 105 of SEQ ID NO.: 80); DOL by mass spec 2.90
internalization potency on K-562 cells, EC50 [M] (HSA-pHAb, flow cytometry) [1]: 3.86e-09 M | increase in specific cell binding against the molecule with a single bisM6P (DOL 1) (orders of magnitude) [2]: > 2 | EC50 [3]: 0.143 nM

B3: T028100070-bis-M6P(3x) (bispecific antibody)
chain: DVQLVESGGGVVQPGGSLRLSCAASGFTFRSFGMSWVRQAPGKGPEWVSSISGSGSDTLYADSVKGRFTISRDNSKNTLYLQMNSLRPEDTALYYCTIGGSLSRSSQGTLVTVSSGGGGSGGGGSGGGGSEVQLVESGGGLVQAGGSLSISCAASGGSLSNYVLGWFRQAPGCEREFVAAINWRGDITIGPPNVEGRFTISRDNACNTGYLQMNSLAPDDTAVYYCGAGTPLNPCAYIYDWSYDYWGRGTLVTVSS
modifications: bisM6P-PEG4-maleimide conjugated to the thiols of the three engineered Cys of the ISVD-based building block (Kabat positions 43, 75 and 100a of SEQ ID NO.: 81); DOL by mass spec 2.84
internalization potency on K-562 cells, EC50 [M] (HSA-pHAb, flow cytometry) [1]: 2.88e-09 M | increase in specific cell binding against the molecule with a single bisM6P (DOL 1) (orders of magnitude) [2]: > 2 | EC50 [3]: 0.154 nM
